Here are results for 11 molecules from patent publication US20110028695A1 (published 2011).

Assay [1] deals with T1, HER2 on SKBR3 cells (human, UniProt P04626 23-1255).
T1 construct: whole, on cells; also called ErbB2; HER2 p185 tyrosine kinase
Description: FMAT on SKBR3 cells; competitor labeled Herceptin.

The target in assay [2] is T2, recombinant human ErbB2/Fc chimera (human, UniProt P04626 23-652).
T2 construct: bought from R&D Systems; also called rhErbB2-Fc; rhErb2-Fc; Fc part of the bought chimera not given
Description: SPR Biacore 3000, periplasmic extract over immobilised rhErbB2-Fc. A general note: In SPR one partner is held on a chip, and binding of the other changes the refractive index at the surface.

The target in assay [3] is T1, HER2 on SKBR3 cells. Put plainly: FMAT on SKBR3 cells, periplasmic extract; competitor biotinylated OT-Fab.
In assay [4] the target is T1, HER2 on SKBR3 cells. Description: cell-based or functional assay.
Assay [5] addresses T1, HER2 on SKBR3 cells. Description: FMAT on SKBR3 cells, periplasmic extract; competitor Alexa647-Herceptin.

Substitutions are numbered along the chain they refer to.

B1: 2A5-9GS-2A5 (VHH)
chain: EVQLVESGGGLVQPGGSLRLSCATSGFTFDDYAMTWVRQAPGKGLEWVSSINWSGTHTDYTDSVKGRFTISRNNANNTLYLQMNSLKSEDTAVYYCAKNWGDAGTTWFEKSGSAGQGTQVTVSSGGGGSGGGSEVQLVESGGGLVQPGGSLRLSCATSGFTFDDYAMTWVRQAPGKGLEWVSSINWSGTHTDYTDSVKGRFTISRNNANNTLYLQMNSLKSEDTAVYYCAKNWGDAGTTWFEKSGSAGQGTQVTVSS
notes: bivalent Nanobody, two VHH joined by a 9GS linker
As to B1, the binding result in the assay with HER2 on SKBR3 cells [1] is listed as “binds”.

B2: 2D3-9GS-2D3 (VHH)
chain: EVQLVESGGSLVQPGGSLRLSCAASGFTFDDYAMSWVRQVPGKGLEWVSSINWSGTHTDYADSVKGRFTISRNNANNTLYLQMNSLKSEDTAVYYCAKNWRDAGTTWFEKSGSAGQGTQVTVSSGGGGSGGGSEVQLVESGGSLVQPGGSLRLSCAASGFTFDDYAMSWVRQVPGKGLEWVSSINWSGTHTDYADSVKGRFTISRNNANNTLYLQMNSLKSEDTAVYYCAKNWRDAGTTWFEKSGSAGQGTQVTVSS
notes: as for B1
Take B2: in the assay with HER2 on SKBR3 cells [1], the binding result is “binds”.

B3: 30D10-35GS-2D3 (bispecific antibody)
chain: EVQLVESGGGLVQAGGSLTLSCTASETTVRIRTMAWYRQPPGNQREWVATIGSNGFATYPDSVKGRFTISRDNAKNTVYLQMNSLKPEDTAVYYCRDINRDIWGQGSQVTVSSGGGGSGGGGSGGGGSGGGGSGGGGSGGGGSGGGGSEVQLVESGGSLVQPGGSLRLSCAASGFTFDDYAMSWVRQVPGKGLEWVSSINWSGTHTDYADSVKGRFTISRNNANNTLYLQMNSLKSEDTAVYYCAKNWRDAGTTWFEKSGSAGQGTQVTVSS
notes: biparatopic Nanobody, 35GS linker; c-myc, His6-tagged
Take B3: the binding result with HER2 on SKBR3 cells [1] was “binds”.

B4: 2H3 (VHH)
VHH: EVQLVESGGGLVQPGGSLRLSCVASGFSLDDYGMTWVRQAPGKGLEWVSSINWSGTHTDYADSVKGRFTISRDNAKNTLFLQMNSLTPEDTAVYYCNQGWKIIPTDRRGHGTQVTVSS
notes: c-myc/His6-tagged
The koff is a measure of how fast the partners let go of each other. Take B4: the koff in assay [2] came to 0.00109 s⁻¹.

B5: 2C3-9GS-2C3 (VHH)
chain: EVQLVESGGGLVQPGGSLRLSCVASGFSLDDYGMTWVRQAPGKGLEWVSSINWSGTHTDYADSVKGRFTISRDNAKNTLFLQMNSLRSEDTAVYYCNQGWKIVPTDRTGHGTQVTVSSGGGGSGGGSEVQLVESGGGLVQPGGSLRLSCVASGFSLDDYGMTWVRQAPGKGLEWVSSINWSGTHTDYADSVKGRFTISRDNAKNTLFLQMNSLRSEDTAVYYCNQGWKIVPTDRTGHGTQVTVSS
notes: as for B1
As to B5, the binding result in the assay with HER2 on SKBR3 cells [1] is on record as “binds”.

B6: 47D5 (VHH)
VHH: KVQLVESGGGLVQPGGSLRLSCAASGSIFGFNDMAWYRQAPGKQRELVALISRVGVTSSADSVKGRFTISRVNAKDTVYLQMNSLKPEDTAVYYCYMDQRLDGSTLAYWGQGTQVTVSS
notes: c-myc/His6-tagged; also called 47A8
Take B6: the “% blocking of OT-Fab binding” value in the assay with HER2 on SKBR3 cells [3] is above 85%.

B7: 27A5-35GS-2D3 (bispecific antibody)
chain: EVQLVESGGGLVQAGGSLNLSCVASGIPFSTRTMAWYRQPPGNERDWVATIRSGAPVYADSVKGRFTVSRDNAKNTLYLQMNSLEPEDTATYYCWDVNGDIWGQGTPVTVSSGGGGSGGGGSGGGGSGGGGSGGGGSGGGGSGGGGSEVQLVESGGSLVQPGGSLRLSCAASGFTFDDYAMSWVRQVPGKGLEWVSSINWSGTHTDYADSVKGRFTISRNNANNTLYLQMNSLKSEDTAVYYCAKNWRDAGTTWFEKSGSAGQGTQVTVSS
notes: as for B3
B7: in the assay with HER2 on SKBR3 cells [1], the binding result is given as “binds”.

B8: 2D3 (VHH)
VHH: EVQLVESGGSLVQPGGSLRLSCAASGFTFDDYAMSWVRQVPGKGLEWVSSINWSGTHTDYADSVKGRFTISRNNANNTLYLQMNSLKSEDTAVYYCAKNWRDAGTTWFEKSGSAGQGTQVTVSS
Take B8: the “inhibition of SKBR3 proliferation ([3H]-thymidine), 50 nM Nanobody” value with HER2 on SKBR3 cells [4] was around 30%.

B9: 13C12 (VHH)
VHH: B8 VHH with A24T, S35T, V40A, A61T, R101G
notes: c-myc/His6-tagged
B9: the “% blocking of Herceptin binding” value in the assay with HER2 on SKBR3 cells [5] is above 90%.

B10: 2A4-9GS-2A4 (VHH)
chain: EVQLVESGGGLVQPGGSLRLSCAASGFIFDDYAMSWVRQAPGKGLEWVSAINWSGSHRNYADSVKGRFTISRDNAKKTVYLQMNSLQSEDTAVYYCGTGWQSTTKNQGYWGQGTQVTVSSGGGGSGGGSEVQLVESGGGLVQPGGSLRLSCAASGFIFDDYAMSWVRQAPGKGLEWVSAINWSGSHRNYADSVKGRFTISRDNAKKTVYLQMNSLQSEDTAVYYCGTGWQSTTKNQGYWGQGTQVTVSS
notes: as for B1
Turning to B10, the binding result in the assay with HER2 on SKBR3 cells [1] is recorded as “binds”.

B11: 27H3-35GS-2D3 (other)
chain: EVQLVESGGSLVQPGGSLRLSCAASGFTFDDYAMTWVRQASGKGLEWVSSINWSGTHTDYTDSVKGRFTISRNNANNTLYLQMNSLKSEDTAVYYCAKNWGDAGTTWFEKSGSAGQGTQVTVSSGGGGSGGGGSGGGGSGGGGSGGGGSGGGGSGGGGSEVQLVESGGSLVQPGGSLRLSCAASGFTFDDYAMSWVRQVPGKGLEWVSSINWSGTHTDYADSVKGRFTISRNNANNTLYLQMNSLKSEDTAVYYCAKNWRDAGTTWFEKSGSAGQGTQVTVSS
notes: as for B3
In the case of B11, the binding result with HER2 on SKBR3 cells [1] is on record as “binds”.
